{"source": "paper PMC4399498", "about": "(Nature communications, 2014)", "binders": {"B1": {"name": "24-bp KdpE site DNA, TAMRA (anisotropy) (dsDNA)", "DNA 1": "CATTTTTATACTTTTTTTACACCC", "DNA 2": "GGGTGTAAAAAAAGTATAAAAATG"}}, "key": {"KdpE": {"target": "T1, KdpE (Escherichia coli, UniProt P21866 1-225)", "T1 sequence": "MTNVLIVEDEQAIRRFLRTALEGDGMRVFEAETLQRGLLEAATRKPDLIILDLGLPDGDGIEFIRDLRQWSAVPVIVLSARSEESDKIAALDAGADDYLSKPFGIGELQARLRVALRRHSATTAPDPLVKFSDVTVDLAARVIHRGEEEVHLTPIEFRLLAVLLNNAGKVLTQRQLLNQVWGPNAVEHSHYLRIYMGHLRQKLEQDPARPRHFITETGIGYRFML", "test": "fluorescence anisotropy"}, "KdpE-E216A": {"target": "T2, KdpE-E216A (Escherichia coli, UniProt P21866 1-225, E216A)", "T2 sequence": "T1 sequence with E216A", "test": "fluorescence anisotropy"}}, "note": "Positions count from the first letter of the chain named.", "data": [{"binder": "B1", "values": [{"measurement": "Kd", "setting": "KdpE", "value": "30 ± 4", "unit": "nM"}, {"measurement": "Kd", "setting": "KdpE-E216A", "value": "3.5 ± 0.5", "unit": "nM"}]}]}
